Reference: patent US20230082465A1 (published 2023)

What was measured:
[1] = target: T1, Fibrinogen Fragment D (human, UniProt P02671 124-216; P02675 164-491; P02679 89-437); assay: BLI
T1 chain 1: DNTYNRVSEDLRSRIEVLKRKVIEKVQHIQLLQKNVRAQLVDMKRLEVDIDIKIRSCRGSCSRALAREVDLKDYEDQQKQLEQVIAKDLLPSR
T1 chain 2: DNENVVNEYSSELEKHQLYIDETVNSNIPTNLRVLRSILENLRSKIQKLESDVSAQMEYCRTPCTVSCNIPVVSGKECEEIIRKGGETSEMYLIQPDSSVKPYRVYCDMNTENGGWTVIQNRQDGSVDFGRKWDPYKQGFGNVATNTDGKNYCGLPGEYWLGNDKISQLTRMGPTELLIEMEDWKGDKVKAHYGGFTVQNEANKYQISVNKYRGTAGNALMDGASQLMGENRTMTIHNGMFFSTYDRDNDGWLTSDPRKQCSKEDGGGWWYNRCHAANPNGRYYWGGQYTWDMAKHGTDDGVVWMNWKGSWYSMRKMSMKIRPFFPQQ
T1 chain 3: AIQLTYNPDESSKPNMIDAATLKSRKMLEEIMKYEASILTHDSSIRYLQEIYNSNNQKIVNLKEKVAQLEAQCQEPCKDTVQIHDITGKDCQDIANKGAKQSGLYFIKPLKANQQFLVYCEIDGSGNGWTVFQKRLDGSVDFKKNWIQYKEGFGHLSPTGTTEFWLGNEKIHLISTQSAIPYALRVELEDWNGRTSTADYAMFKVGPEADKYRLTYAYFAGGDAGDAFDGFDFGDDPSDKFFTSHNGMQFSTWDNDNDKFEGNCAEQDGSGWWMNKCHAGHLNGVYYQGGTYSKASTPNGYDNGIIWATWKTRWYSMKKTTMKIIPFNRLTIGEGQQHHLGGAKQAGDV

[2] = target: T2, Fragment DD from fibrin (human, UniProt P02671 124-216; P02675 164-491; P02679 89-437); assay: BLI
T2 chain 1: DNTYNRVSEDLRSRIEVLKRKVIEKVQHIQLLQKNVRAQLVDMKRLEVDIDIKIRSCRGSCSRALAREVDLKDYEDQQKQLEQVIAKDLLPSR
T2 chain 2: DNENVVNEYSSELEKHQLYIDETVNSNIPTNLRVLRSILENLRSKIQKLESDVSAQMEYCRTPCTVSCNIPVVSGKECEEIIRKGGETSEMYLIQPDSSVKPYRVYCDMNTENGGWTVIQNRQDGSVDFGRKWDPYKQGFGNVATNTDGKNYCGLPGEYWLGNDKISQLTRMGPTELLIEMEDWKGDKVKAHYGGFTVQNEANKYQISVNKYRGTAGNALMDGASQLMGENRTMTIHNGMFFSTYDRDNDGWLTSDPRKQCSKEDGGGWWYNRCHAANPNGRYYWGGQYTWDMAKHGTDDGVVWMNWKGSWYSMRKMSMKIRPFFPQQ
T2 chain 3: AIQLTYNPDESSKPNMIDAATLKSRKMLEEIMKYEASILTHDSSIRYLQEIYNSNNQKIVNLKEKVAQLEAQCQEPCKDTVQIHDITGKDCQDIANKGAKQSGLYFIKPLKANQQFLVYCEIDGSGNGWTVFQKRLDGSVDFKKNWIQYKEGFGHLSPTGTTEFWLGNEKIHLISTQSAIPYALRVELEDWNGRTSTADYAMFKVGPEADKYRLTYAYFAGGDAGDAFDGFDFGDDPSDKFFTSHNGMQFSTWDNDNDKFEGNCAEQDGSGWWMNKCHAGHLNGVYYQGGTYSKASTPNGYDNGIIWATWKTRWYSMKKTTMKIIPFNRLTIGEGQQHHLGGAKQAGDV

- Kd [1]: 36.8 nM
- Kd [2]: 0.417 nM
B1: recombinant antibody #12 (antibody, V domains shown)
VH: QVQLQQPGAEVVRPGASVKLSCKASGYSFTSYWIHWLKQGPHQGLEWIGRIDPDDSETHYNQKFKDKALLTVDKSSSTAYMQLRSLTSEDSAVYYCARTNWDAWFAYWGQGTLVTVSA
VL: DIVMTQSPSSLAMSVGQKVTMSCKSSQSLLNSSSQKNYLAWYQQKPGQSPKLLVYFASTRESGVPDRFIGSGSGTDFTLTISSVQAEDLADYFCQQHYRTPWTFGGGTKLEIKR
